Results taken from paper PMC9579124, “IKKβ binds NLRP3 providing a shortcut to inflammasome activation for rapid immune responses” (Signal Transduction and Targeted Therapy, 2022).

Target: T1, MST-Red-NLRP3 (UniProt Q96P20 1-1036, MST-Red label (position not given))
T1 construct: NLRP3 labelled with MST-Red for microscale thermophoresis
Assay: MST; in solution; 50 nM MST-Red-NLRP3 titrated against increasing concentrations of IKKβ; two independent titrations
Settings: both partners purified

T1 sequence (Q96P20 whole entry): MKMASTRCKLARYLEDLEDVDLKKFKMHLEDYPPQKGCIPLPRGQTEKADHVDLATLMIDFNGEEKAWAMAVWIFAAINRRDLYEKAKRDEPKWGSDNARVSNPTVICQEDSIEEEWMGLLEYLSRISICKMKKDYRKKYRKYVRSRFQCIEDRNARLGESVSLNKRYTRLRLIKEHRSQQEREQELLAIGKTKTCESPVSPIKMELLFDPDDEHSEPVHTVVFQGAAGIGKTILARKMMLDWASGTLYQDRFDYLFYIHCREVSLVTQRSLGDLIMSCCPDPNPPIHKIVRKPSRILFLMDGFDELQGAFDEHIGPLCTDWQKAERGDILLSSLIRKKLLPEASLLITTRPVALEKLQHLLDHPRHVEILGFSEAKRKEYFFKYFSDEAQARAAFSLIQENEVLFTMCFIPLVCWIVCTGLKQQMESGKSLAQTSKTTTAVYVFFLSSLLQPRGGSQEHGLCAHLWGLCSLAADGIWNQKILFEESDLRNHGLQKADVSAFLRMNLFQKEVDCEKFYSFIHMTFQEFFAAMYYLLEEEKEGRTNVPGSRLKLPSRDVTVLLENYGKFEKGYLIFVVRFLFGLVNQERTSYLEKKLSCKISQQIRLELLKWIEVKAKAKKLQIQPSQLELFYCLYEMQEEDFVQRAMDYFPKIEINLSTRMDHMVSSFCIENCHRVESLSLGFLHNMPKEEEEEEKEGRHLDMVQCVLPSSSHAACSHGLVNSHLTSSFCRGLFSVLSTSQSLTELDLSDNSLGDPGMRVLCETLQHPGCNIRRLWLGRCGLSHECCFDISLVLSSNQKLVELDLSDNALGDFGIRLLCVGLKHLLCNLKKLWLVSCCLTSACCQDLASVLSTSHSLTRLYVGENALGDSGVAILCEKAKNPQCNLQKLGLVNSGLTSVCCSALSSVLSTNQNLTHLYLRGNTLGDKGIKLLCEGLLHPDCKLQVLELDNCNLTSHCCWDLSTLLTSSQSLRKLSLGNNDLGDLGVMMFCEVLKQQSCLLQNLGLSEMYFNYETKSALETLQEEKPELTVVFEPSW

B1: IKKβ used for microscale thermophoresis (enzyme, UniProt O14920 1-756, looked up)
chain: MSWSPSLTTQTCGAWEMKERLGTGGFGNVIRWHNQETGEQIAIKQCRQELSPRNRERWCLEIQIMRRLTHPNVVAARDVPEGMQNLAPNDLPLLAMEYCQGGDLRKYLNQFENCCGLREGAILTLLSDIASALRYLHENRIIHRDLKPENIVLQQGEQRLIHKIIDLGYAKELDQGSLCTSFVGTLQYLAPELLEQQKYTVTVDYWSFGTLAFECITGFRPFLPNWQPVQWHSKVRQKSEVDIVVSEDLNGTVKFSSSLPYPNNLNSVLAERLEKWLQLMLMWHPRQRGTDPTYGPNGCFKALDDILNLKLVHILNMVTGTIHTYPVTEDESLQSLKARIQQDTGIPEEDQELLQEAGLALIPDKPATQCISDGKLNEGHTLDMDLVFLFDNSKITYETQISPRPQPESVSCILQEPKRNLAFFQLRKVWGQVWHSIQTLKEDCNRLQQGQRAAMMNLLRNNSCLSKMKNSMASMSQQLKAKLDFFKTSIQIDLEKYSEQTEFGITSDKLLLAWREMEQAVELCGRENEVKLLVERMMALQTDIVDLQRSPMGRKQGGTLDDLEEQARELYRRLREKPRDQRTEGDSQEMVRLLLQAIQSFEKKVRVIYTQLSKTVVCKQKALELLPKVEEVVSLMNEDEKTVVRLQEKRQKELWNLLKIACSKVRGPVSGSPDSMNASRLSQPGQLMSQPSTASNSLPEPAKKSEELVAEAHNLCTLLENAIQDTVREQDQSFTALDWSWLQTEEEEHSCLEQAS
notes: IKKβ titrated in MST
  Kd: 1430 ± 350 nM
